Data published in paper PMC9442473, “Centriole growth is limited by the Cdk/Cyclin-dependent phosphorylation of Ana2/STIL” (The Journal of Cell Biology, 2022).

B1: Ana2-mNG (natural protein, Drosophila melanogaster, UniProt Q9XZ31 1-420, looked up)
chain: MFVPETEDMLPRLAPRPSAAVPMGHTNEIIGPTVPEVSILFGQPPQDPQMQPQQPNHAHQESSPRAAPTFASWKKQMLPRVNFSPILATELGPRTAPSSNSPCSSKEYQVMPRDRNYASDAQQTTNHMNCNAGGYNAEPKQQAYQSRRLSSSSNADVLTICAGTQTDPFNPSPPRKSLPQVVYSDIDVSNLANKSDLAALVSLVESVRHEQQQLRNLCEMILEQQQRAKPEAISKASSTTGTQCDILTTNQAGRRLSPIMQDYIAEEEEPLPPPQARVIPQFPSPRPHPPIAQSTGYRANTPQAKRIPQLAKPNTEKSMVMNELALKYLRQPVDELMKDMRLGASPKSPNPEPLRPIDNIGHAQSPNDISNASYKYLKKYRLLPEEQLEPVCPQSPMAATAPSPHIQLDLENIRNQPKLL
notes: Ana2 (fly homologue of STIL), Drosophila melanogaster; mNG with a short linker knocked in at the C-terminus of the endogenous locus; The protein appeared overexpressed about 2-4X against the untagged one; also called Ana2/STIL; WT Ana2-mNG; source: CRISPR/Cas9 knock-in at the endogenous locus, in the cytoplasm of living Drosophila syncytial embryos; not shown: mNeonGreen (mNG), C-terminal, kept
B2: mNG-Ana2 (natural protein, Drosophila melanogaster, UniProt Q9XZ31 1-420, looked up)
chain: B1 chain
notes: Ana2 (fly homologue of STIL), Drosophila melanogaster; mNG with a short linker knocked in at the N-terminus of the endogenous locus; also called Ana2/STIL; source: CRISPR/Cas9 knock-in at the endogenous locus, in the cytoplasm of living Drosophila syncytial embryos; not shown: mNeonGreen (mNG), N-terminal, kept

Biological target: the molecule itself
Test: fluorescence correlation spectroscopy (FCS), photon-count rate per molecule (CPM); point FCS in the cytoplasm of living syncytial embryos at the beginning of nuclear cycle 12, 25.0-26.0°C; CPM compared with monomeric (mNG) and dimeric (dNG) NeonGreen controls

Protein	stoichiometry N
B1	~2
B2	~2
